Assay results as given in article doi:10.1101/555623.

Tests used:
[1] = molecular target: BRCA1 tBRCT F1662R mutant (human) (UniProt P38398); assay: MST
[2] = molecular target: BRCA1 tBRCT L1701K mutant (human) (UniProt P38398); assay: MST

Substance BACH1 phosphopeptide has a Kd [1] of 0.86 µM and a Kd [2] of 1.96 µM.
